# Reference: the DeepSol protein solubility set
# Experiment: soluble on expression in E. coli; label from the status in PepcDB or PDB records
row,Sequence,soluble on expression in E. coli
1,MVFPSEQEQIEKFEKDHVAQHYFEVLRTLISKKSVFAQQVGLKEVANYLGEIFKRVGAEVEIDESYTAPFVMAHFKSSRPDAKTLIFYNHYDTVPADGDQVWTEDPFTLSVRNGFMYGRGVDDDKGHITARLSALRKYMQHHDDLPVNISFIMEGAEESASTDLDKYLEKHADKLRGADLLVWEQGTKNALEQLEISGGNKGIVTFDAKVKSADVDIHSSYGGVVESAPWYLLQALQSLRAADGRILVEGLYEEVQEPNEREMALLETYGQRNPEEVSRIYGLELPLLQEERMAFLKRFFFDPALNIEGIQSGYQGQGVKTILPAEASAKLEVRLVPGLEPHDVLEKIRKQLDKNGFDKVELYYTLGEMSYRSDMSAPAILNVIELAKKFYPQGVSVLPTTAGTGPMHTVFDALEVPMVAFGLGNANSRDHGGDENVRIADYYTHIELVEELIRSYE,soluble
2,MVFRKYRAVKQWGKMDTRIFKEIYNSRNKRKMPAFEVPDAVKALGVPVFEPNEIFQLSNRKNLVEQAAKEHMENELKFTEPPQQHPLQKSHPAYIFEAAEPMSDGIAQAAVLTRSVVATGGLPDTILLNSAAKLEIDEEMVKDAILHGERYNPSLEKLPARFDPVMFWIRHPRLHGTPVIKKNNIILNNLLRHVVLGGLRTQALKQNFQFSTKILQKNSNFLWKIQKNLIFSDFRLKLKNFCRVNRDSPLSVYVSGGQYFSKNALVLRAQPHLTVQSADSTVTMPWAGPIDVKAVWRIFTKMFSFSSFSYQNSSIFHQKLSKIFSAEPLPDIYPISPVIDFSMDTIYNDDVLLTRRSQQQKTHIHSILWSREQDQKYPWTSEQNMANAILTTYAAAVAEATRNGATTELEKPLLVRGVQLVNGRLDLVAMQLNTLKPTSEAGNNDEKNIVWIEKGLRLYKPTPYYEQMDTVEKLDMTVFHKFVALMLGFGAPHAH,not soluble
3,MVGEGEIELRNELPGGEVHAAWHLRYAGHDFFVKCDEREMLRGFTAEADQLELLSRSKTVVVPKVWAVGSDRDYSFLVMDYLSPRPLDAHNAFILGQQLARLHQWSDQPQFGLDFDNALSTTPQPNTWQRRWSTFFAEQRIGWQLELAAEKGITFGNIDAIVEHVQQRLASHQPQPSLLHGDLWSANCALGPDGPYIFDPACYWGDRECDLAMLPLHTDQPPQIYDGYQSVSPLPLDFLDRQPIYQLYTLLNRARLFGGQHLATAQKAMDRLLAVLEHHHHHH,not soluble
4,MVGPLKIGRHEVKYPLIQGGMGVRISGGRLAGHVAKCGGVGLVAAAGISLSGLFTGANYLQSNPEAMRKELRKAYAIAPDGVIGVNIMVALTDYEELVRASIDGGAKVIVCGAGLPLTLPELTAHAPEVALVPIVSSVRAAQLIAKKWEKGFGRLPDAVVVEDPDTAGGHLGEKLENIGAGTYDQYGTIRAIKAYFLEEYGVSVPVVAAGGIWDRDDVLHAFEQGADAVQMASRFVPTVECDADDAYKQAYLECRREDIGLIMSPAGLPGRAILRNQDQIVLHDQLKGVACGNGCLKKCSYKETGERFCIVNALDRAQRGDVETGLVFCGTNAWKADRITTVQEIFDELFAVGEESEKAA,not soluble
5,MVGRRDGPFKPPGGLLRAFLVRVDAGHLRTVSYSTVLASTSAHSSALPPRRSPPMNAPAKSLLDIDAFPLVQVREMPRELADVERWLEEVEALLAVERDFALVYPPLPQETAEGDQQARKRLVLWLKENRQRFVEHCRGILLSANGQPDNLADLQQLAPVLQAVYGPPVSVAPDLASARGMAKALLSGPATGMNW,not soluble
6,MVHIKKGELTQEEKELLEVIGKGTVQEAGTLLSSKNVRVNCLDENGMTPLMHAAYKGKLDMCKLLLRHGADVNCHQHEHGYTALMFAALSGNKDITWVMLEAGAETDVVNSVGRTAAQMAAFVGQHDCVTIINNFFPRERLDYYTKPQGLDKEPKLPPKLAGPLHKIITTTNLHPVKIVMLVNENPLLTEEAALNKCYRVMDLICEKCMKQRDMNEVLAMKMHYISCIFQKCINFLKDGENKLDTLIKSLLKGRASDGFPVYQEKIIRESIRKFPYCEATLLQQLVRSIAPVEIGSDPTAFSVLTQAITGQVGFVDVEFCTTCGEKGASKRCSVCKMVIYCDQTCQKTHWFTHKKICKNLKDIYEKQQLEAAKEKRQEENHGKLDVNSNCVNEEQPEAEVGISQKDSNPEDSGEGKKESLESEAELEGLQDAPAGPQVSEE,soluble
7,MVHWADYIADKIIRERGEKEKYVVESGITPSGYVHVGNFRELFTAYIVGHALRDKGYEVRHIHMWDDYDRFRKVPRNVPQEWKDYLGMPISEVPDPWGCHESYAEHFMRKFEEEVEKLGIEVDLLYASELYKRGEYSEEIRLAFEKRDKIMEILNKYREIAKQPPLPENWWPAMVYCPEHRREAEIIEWDGGWKVKYKCPEGHEGWVDIRSGNVKLRWRVDWPMRWSHFGVDFEPAGKDHLVAGSSYDTGKEIIKEVYGKEAPLSLMYEFVGIKGQKGKMSGSKGNVILLSDLYEVLEPGLVRFIYARHRPNKEIKIDLGLGILNLYDEFEKVERIYFGVEGGKGDDEELRRTYELSMPKKPERLVAQAPFRFLAVLVQLPHLTEEDIINVLIKQGHIPRDLSKEDVERVKLRINLARNWVKKYAPEDVKFSILEKPPEVEVSEDVREAMNEVAEWLENHEEFSVEEFNNILFEVAKRRGISSREWFSTLYRLFIGKERGPRLASFLASLDRSFVIKRLRLEG,soluble
8,MVIEMEPDTHIISALVEHKPGVLQRVAGLFTRRGFNIENITVGESETPGIARMTIIARGDDRVLEQITKQLNKLIDVIKVRDLEPAATVKRELCMVKVHAPSESERSEIIQYTNIFRGRIVDVSPDALTVEVTGDSEKIDAFLELLRNFGIKELARTGPTAMSRGSRTM,not soluble
9,MVIEVPQTERVNDVDVFLSTQDGQIQRPKGPNCRHPVRQKCTNCLPVDPFDEEYLKEKDIKHMSFHAHVRKLLGSQGKGTTLKKPLENFRCSLKPNCDAHKPFPKGICTKCKPQVVTLNRQKFRHVDNIQIENQELVNQFLDYWRLSGHQRVGFLIGQYQPHLEVPLGIKATVAAIYEPPQHCREDGIEFLEDKNQKTIDNLLEMLGLQRVGWIFTDCWTANSAEGTVHYTRHKDSFFLSAEECITAAMLQNQHPNITEYSMDRHYGSKFVTVVASGDESMHVNFHGYQVSNQCAAMVEADILCPTLYTPELAYVRETPLSEEHYITDVQFSMKNEYGAEVMKNGRPLPVEYLLVDVPAGMPKEPHYTFHVGTSNKSKSAKFNVENRQAIGQLQGGANLIQYSSEFSTNQFLEQATNFHFLLYLVTNDQVQISDEWMKRLCDAVKAQDRGTAMEWAQECEDWHQLMALAHANGGSGNDDIPVIPNGDPFSGSSSGGSRGAVWSCGHCTFQNEAGRQDCSMCGLPAAD,not soluble
10,MVIMLATMLHSIAVGNLLPSYVKTICVDMNPSTVTKLMDRGTHQAIGVVTDVGLFLPLLYLKIKEIEAKE,not soluble
11,MVIVGGQDRSISTRQGAAMTDTPPPETDAAPEVPGAAPGKTLTPAARRALEEAAARRAAEAALSLPPEEGGRDGPEPTRFGDWEKKGVAVDFLEHHHHHH,not soluble
12,MVKETKLYDLLGVSPSANEQELKKGYRKAALKYHPDKPTGDTEKFKEISEAFEILNDPQKREIYDQYGLEAARSGGPSFGPGGPGGAGG,soluble
13,MVKKEFQLTHIFKNVSKLKVGKFAWTPMKEHFNVSWQIAITRTHFRNEEKMEIQVGCQKLTKDDVPAGVEGEFTIKLTNSSGISTSKSSRLKLVKNGGLGFLKIVWKVMQDEYLIDDSIIIEATVKITKMTGISKKPLKCFDQSKEKFSDVILAVGDQKFFVLRKFLASHSTFFESRFLGNFDEADKSEVTLRDIDSADFQNLLEVLYGEPAIDDDTVDGILHLAHMYDIPLPIRKCEEFLIEVSEKSMKDQLVLAKQYQLEKLKVKKKT,not soluble
